Source: PMC6997759 (2019)

Assays:
[1] = target: AE.A244gp120Δ11 (N-terminal 11 aa deleted) (HIV-1 (clade AE, A244)); test: SPR; apparent affinity
B.MNgp120Δ11 = test: SPR; apparent affinity

B1: DH677.3 MAb (antibody, V domains shown)
VH: QVQLVQSGAEVQKPGASVKVSCKASGYTFASYDINWVRQATGQGLEWMGWMNPKTGNTGYAQKFQGRVTLTRNTSISTAYMELTSLRSEDTAVYYCATYRIIAAVGYRYFQYWGQGTLVTVSS
VL: DIQLTQSPSSLSASVGDSVTITCRASQGFGNYLAWYQQRPGKVPEVLIYAATTLQSGVPSRFSGSGSGTDFTLTISSLQPEDVATYYCQKYNSAPFTFGQGTRLEIK
In the case of B1, the Kd [1] is reported as 0.6 nM and the Kd (B.MNgp120Δ11) is reported as 7.02 nM.
